Laboratory results: PMC12669776

Key:
Assay in all cases: EMSA
[1] = system: PRC2-AEBP2L(TEV)-JARID2 cleaved with TEV (Homo sapiens); conditions: with TEV; Hill 2.7 ± 0.4; CpG24 EMSA/FA: 50 mM Tris pH 7.5, 100 mM KCl (FA 25/50/100), 0.05% NP40, 0.1 mg/ml BSA, 2 mM 2-ME, 30 C; CpG46 FA: 20 mM Tris pH 8.0, 100 mM NaCl, 0.1 mM …
[2] = system: PRC2-AEBP2L-JARID2 wild-type (Homo sapiens), Q6ZN18-2+Q92833+Q15910-2+Q15022+O75530+Q09028; conditions: 2.5 mM Mg2+, 100 mM NaCl; CpG24 EMSA/FA: 50 mM Tris pH 7.5, 100 mM KCl (FA 25/50/100), 0.05% NP40, 0.1 mg/ml BSA, 2 mM 2-ME, 30 C; CpG46 FA: 20 mM Tris pH 8.0, 100 mM NaCl, 0.1 mM …
[3] = system: PRC2-AEBP2L(TEV)-JARID2, uncleaved (Homo sapiens); conditions: no TEV; Hill 2.4 ± 0.2; CpG24 EMSA/FA: 50 mM Tris pH 7.5, 100 mM KCl (FA 25/50/100), 0.05% NP40, 0.1 mg/ml BSA, 2 mM 2-ME, 30 C; CpG46 FA: 20 mM Tris pH 8.0, 100 mM NaCl, 0.1 mM …
[4] = system: PRC2-AEBP2L mt1A2A-JARID2 E37A;E38A;E39A;E40A;E41A;E42A;E43A;E44A;E45A;E46A;E47A;E48A;E95A;D96A;E97A;D98A;E99A;E100A;E101A;D102A;D103A;E104A;E105A;E106A;E107A;D108A;E109A (Homo sapiens), Q6ZN18-2+Q92833+Q15910-2+Q15022+O75530+Q09028; conditions: 2.5 mM Mg2+, 100 mM NaCl; CpG24 EMSA/FA: 50 mM Tris pH 7.5, 100 mM KCl (FA 25/50/100), 0.05% NP40, 0.1 mg/ml BSA, 2 mM 2-ME, 30 C; CpG46 FA: 20 mM Tris pH 8.0, 100 mM NaCl, 0.1 mM …

NCP182
Kd [1]: 18.7 nM | Kd [2]: 33 nM | Kd [3]: 24.8 nM | Kd [4]: 15.6 nM
